Data on one substance can be found in patent US20220348620A1.

Common to all, as to test: anti-Flag pull-down from MFF1-transfected PC3 cells, LC-MS/MS; intensity over control, mean of two experiments
Assay [1] deals with SLC25A13 (human) (UniProt Q9UJS0).
Assay [2] has as its target COPB1 (human) (UniProt P53618).
Assay [3] has as its target TFRC (human) (UniProt P02786).
Assay [4] concerns the target DDOST (human) (UniProt P39656).
Assay [5] has as its target DDB1 (human) (UniProt Q16531).
In assay [6] the target is RPN1 (human) (UniProt P04843).
Chain of RPN1 (human) (P04843 24-607 limits assumed): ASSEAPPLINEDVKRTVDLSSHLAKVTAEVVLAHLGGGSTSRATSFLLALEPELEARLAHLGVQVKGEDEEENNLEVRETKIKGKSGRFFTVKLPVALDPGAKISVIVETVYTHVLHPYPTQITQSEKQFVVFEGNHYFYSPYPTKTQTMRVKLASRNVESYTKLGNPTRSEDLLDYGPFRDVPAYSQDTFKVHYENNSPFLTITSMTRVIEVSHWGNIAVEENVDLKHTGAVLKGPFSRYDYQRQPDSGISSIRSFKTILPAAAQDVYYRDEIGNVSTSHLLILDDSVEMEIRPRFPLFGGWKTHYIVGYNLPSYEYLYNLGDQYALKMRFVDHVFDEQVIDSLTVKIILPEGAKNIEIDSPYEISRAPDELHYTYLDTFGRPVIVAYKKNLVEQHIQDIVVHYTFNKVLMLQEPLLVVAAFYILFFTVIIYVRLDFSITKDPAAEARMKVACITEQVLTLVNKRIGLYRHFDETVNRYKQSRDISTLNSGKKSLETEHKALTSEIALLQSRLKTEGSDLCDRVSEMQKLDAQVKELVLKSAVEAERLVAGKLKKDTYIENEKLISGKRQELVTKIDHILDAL
Assay [7] addresses RPN2 (human) (UniProt P04844).
Assay [8] addresses OPA1 (human) (UniProt O60313).
Assay [9] has as its target HSPA8 (human) (UniProt P11142).
The target of assay [10] is COPA (human) (UniProt P53621).

Chain of SLC25A13 (human) (Q9UJS0 2-675 limits assumed): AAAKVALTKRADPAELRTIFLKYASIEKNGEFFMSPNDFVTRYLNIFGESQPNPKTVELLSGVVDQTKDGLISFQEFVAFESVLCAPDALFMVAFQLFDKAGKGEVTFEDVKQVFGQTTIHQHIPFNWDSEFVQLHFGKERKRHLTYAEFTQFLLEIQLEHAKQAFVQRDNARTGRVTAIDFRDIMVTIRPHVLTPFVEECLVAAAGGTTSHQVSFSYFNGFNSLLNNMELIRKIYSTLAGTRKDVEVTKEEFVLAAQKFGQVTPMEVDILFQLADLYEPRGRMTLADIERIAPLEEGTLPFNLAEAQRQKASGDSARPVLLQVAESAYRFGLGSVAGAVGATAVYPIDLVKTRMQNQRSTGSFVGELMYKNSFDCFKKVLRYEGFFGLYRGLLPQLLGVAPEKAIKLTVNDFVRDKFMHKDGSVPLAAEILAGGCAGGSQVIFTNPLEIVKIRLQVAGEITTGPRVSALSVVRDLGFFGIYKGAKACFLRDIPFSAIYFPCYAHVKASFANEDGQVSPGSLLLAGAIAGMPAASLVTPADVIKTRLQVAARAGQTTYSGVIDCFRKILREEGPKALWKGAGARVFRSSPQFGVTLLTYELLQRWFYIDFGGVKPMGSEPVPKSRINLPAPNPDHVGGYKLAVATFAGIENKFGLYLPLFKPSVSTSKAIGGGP
Chain of HSPA8 (human) (P11142 2-646 limits assumed): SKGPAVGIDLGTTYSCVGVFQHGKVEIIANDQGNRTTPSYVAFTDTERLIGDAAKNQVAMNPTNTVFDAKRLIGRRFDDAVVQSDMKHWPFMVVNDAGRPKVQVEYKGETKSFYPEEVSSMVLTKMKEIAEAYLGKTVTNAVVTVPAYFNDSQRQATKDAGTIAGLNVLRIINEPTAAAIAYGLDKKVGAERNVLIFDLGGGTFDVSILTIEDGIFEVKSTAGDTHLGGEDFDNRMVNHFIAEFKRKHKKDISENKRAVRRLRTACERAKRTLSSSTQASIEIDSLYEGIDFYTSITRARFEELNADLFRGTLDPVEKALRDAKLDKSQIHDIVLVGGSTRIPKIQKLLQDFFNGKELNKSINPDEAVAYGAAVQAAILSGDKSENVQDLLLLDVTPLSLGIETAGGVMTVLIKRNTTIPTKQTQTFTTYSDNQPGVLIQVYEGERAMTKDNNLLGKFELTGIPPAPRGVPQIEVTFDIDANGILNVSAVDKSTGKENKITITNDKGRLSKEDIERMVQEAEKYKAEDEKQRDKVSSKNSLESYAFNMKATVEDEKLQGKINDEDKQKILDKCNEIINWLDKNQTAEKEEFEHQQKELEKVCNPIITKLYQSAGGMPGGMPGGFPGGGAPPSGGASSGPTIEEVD
Chain of TFRC (human) (P02786 whole entry): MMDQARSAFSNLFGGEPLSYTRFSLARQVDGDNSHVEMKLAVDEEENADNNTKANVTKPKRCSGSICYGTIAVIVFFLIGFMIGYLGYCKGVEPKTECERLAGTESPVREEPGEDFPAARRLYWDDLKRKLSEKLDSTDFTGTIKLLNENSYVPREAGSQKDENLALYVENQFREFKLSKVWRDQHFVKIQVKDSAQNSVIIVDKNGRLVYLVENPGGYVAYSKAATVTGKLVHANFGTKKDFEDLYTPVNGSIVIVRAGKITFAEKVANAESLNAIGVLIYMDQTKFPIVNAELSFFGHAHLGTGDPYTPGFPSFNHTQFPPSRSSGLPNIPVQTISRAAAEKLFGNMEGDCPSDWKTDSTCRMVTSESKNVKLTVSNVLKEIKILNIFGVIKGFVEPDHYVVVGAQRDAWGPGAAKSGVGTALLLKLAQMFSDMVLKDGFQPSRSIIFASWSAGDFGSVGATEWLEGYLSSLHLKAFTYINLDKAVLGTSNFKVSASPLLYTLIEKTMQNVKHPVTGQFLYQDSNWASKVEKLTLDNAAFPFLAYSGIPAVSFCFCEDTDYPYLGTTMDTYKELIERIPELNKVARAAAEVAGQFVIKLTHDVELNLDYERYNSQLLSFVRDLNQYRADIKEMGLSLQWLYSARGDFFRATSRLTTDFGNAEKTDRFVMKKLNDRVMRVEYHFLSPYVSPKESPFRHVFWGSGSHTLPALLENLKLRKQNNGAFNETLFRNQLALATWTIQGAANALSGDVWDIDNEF
Chain of COPB1 (human) (P53618 2-953 limits assumed): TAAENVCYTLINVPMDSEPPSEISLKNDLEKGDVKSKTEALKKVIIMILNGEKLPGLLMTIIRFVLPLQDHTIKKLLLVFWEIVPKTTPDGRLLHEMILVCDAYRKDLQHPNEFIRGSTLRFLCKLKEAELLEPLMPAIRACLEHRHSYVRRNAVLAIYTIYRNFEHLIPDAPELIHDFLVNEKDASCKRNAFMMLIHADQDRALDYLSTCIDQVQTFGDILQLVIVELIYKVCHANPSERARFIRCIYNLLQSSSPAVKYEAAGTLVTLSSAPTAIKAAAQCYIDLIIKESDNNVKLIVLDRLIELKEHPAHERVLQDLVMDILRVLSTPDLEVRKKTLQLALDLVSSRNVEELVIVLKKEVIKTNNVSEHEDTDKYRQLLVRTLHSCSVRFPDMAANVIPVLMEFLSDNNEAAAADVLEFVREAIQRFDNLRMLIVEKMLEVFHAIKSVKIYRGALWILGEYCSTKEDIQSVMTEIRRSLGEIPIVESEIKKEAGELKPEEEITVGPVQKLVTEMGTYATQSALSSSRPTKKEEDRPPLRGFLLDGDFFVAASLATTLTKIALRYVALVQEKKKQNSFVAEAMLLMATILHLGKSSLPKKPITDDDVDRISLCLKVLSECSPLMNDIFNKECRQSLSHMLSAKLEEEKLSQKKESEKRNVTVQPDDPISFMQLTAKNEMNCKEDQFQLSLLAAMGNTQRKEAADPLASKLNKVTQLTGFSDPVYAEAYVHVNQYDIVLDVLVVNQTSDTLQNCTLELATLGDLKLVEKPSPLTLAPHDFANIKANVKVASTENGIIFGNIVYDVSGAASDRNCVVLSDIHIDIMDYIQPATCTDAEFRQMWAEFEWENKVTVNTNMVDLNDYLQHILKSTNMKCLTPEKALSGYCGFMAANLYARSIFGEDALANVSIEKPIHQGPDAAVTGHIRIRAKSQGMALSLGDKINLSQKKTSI
Chain of DDB1 (human) (Q16531 2-1140 limits assumed): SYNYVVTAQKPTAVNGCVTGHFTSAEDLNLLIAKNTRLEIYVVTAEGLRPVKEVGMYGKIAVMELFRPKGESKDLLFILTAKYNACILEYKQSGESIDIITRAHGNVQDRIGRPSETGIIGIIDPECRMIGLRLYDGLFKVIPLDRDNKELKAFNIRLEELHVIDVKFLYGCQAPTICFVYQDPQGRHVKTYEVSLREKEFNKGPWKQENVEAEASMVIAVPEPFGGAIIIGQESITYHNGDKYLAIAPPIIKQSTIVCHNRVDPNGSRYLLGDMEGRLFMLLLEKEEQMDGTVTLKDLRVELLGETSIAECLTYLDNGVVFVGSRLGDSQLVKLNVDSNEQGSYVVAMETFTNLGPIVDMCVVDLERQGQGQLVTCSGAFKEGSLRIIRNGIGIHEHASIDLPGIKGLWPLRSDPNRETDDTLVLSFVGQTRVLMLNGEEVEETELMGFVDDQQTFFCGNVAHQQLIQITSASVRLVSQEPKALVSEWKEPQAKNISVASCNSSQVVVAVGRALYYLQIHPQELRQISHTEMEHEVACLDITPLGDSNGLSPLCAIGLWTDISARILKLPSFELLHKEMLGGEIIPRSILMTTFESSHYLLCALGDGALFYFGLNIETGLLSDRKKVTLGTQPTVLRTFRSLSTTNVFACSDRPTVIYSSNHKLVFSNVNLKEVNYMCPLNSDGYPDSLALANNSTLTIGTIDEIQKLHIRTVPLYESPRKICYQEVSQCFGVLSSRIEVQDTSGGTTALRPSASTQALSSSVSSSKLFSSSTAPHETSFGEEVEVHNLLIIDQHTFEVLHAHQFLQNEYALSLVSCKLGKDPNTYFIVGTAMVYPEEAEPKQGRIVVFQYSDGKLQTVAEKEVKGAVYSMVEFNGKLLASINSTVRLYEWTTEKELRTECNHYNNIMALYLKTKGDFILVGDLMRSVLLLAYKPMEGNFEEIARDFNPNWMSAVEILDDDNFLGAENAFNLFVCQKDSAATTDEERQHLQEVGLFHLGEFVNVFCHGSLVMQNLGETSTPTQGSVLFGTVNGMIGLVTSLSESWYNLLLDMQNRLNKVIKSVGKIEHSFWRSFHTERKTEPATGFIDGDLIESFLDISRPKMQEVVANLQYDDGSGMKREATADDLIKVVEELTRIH

With Flag-MFF1 (from UniProt Q9GZY8 1-342), the mean fold in [1] was 15.1 fold; in [2] it was 18.5 fold; in [3], 25.3 fold; in assay [4], 17.1 fold; in [5] it was 32.3 fold; in assay [6], 10.8 fold. Besides, the mean fold was determined as 12.1 fold in assay [7], 25.2 fold in assay [8], 21.4 fold in assay [9] and 19.3 fold in assay [10].
